Reference: the nanobody polyreactivity screen of Harvey et al. (2022)

Test: yeast display, Sf9 membrane polyspecificity reagent, FACS + sequencing; frameworks hold sequencing errors
Outline: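 After 36–48 hours of galactose induction, yeast (Saccharomyces cerevisiae BJ5465) displaying a synthetic nanobody library were stained at 4 °C for 1 hour with 10% biotinylated, detergent-solubilized Sf9 membrane reagent. Streptavidin microbeads enriched the stained cells before FACS sorting into low and high (top ~1%) gates on anti-HA and streptavidin fluorescence. Each clone's polyreactivity label reflects its gate of origin.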

## QVQLVESGGGLVQAGGSLRLSCAASVITFGANTMGWDIQAPGKERELVATLTSSGGSTYYADSVKGRFTISRDNAKNTVYLQMNSLKPEDTAVYYCAASDLRDRGNYVYLPSEYWGLGTQVTVSS
  polyreactivity (PSR sort gate): low polyreactivity

## QVQLVESGGGLVQAGGSLRLSCAASVITFIDYARGWYRQAPGKERELVAAINSSGGGTYYADSVKGRFTISRDNAKNTVYLQMNSLKPEDTAVYYCAADFWYWGQIDSSDYWGQGTQVTVSS
  polyreactivity (PSR sort gate): low polyreactivity

## QVQLVESGGGLVQAGGSLRLSCAASVLIFGPYTMGWYRQAPGKEREFDAAINRSGGSTYYADSVKGRFTISRDNAKNTVYLQMNSLKPEDTAVYYCNAEQYGKQWYSGYNYDYWGQGTQVTVSS
  polyreactivity (PSR sort gate): high polyreactivity

## QVQLVESGGGLVQAGGSLRLSCAASVLIIGYNSMGWYRQAPGTERELVASIRYSGGTTYYADSVKGRFTISRDNEKNTVNLQMNSVKPEDTAVYFCATRVTYRRRFDYWGQGTQVTVSS
  polyreactivity (PSR sort gate): high polyreactivity

## QVQLVESGGGLVQAGGSLRLSCAASVRIFVDNTMGLYRQAPGKERELVAVITSGGSTNYADSVKGRFTISRDNAKNTVYLQMNSLKPEDTAVYYCATEPGGDRFDDRPFQYGYWGQGTQVTVSS
  polyreactivity (PSR sort gate): low polyreactivity

## QVQLVESGGGLVQAGGSLRLSCAASVRTFEGYAMGWDRQEPGKERELVAAISKSGGRTYYADSVKGRFTISRDNAKNTVYLQMNSLKPEHTAVYYCAARVSSGSNSDYWGQGTQVTVSS
  polyreactivity (PSR sort gate): high polyreactivity

## QVQLVESGGGLVQAGGSLRLSCAASVRTFGFNVMGWYRQAPGKERELVAAISWSGGSTYYADSVKGRFTISRDNAKNTVYLQMNSLKPEVTAVYYCNKRYVHRYGYWGQGTQVTVSS
  polyreactivity (PSR sort gate): low polyreactivity

## QVQLVESGGGLVQAGGSLRLSCAASVRTFKFYAMGWYRQAPGKERELVAAITSSGGSTYYADSVKGRFTISRVNAKNTVYLQMNSLKPEDTAVYYCAAVGYKGYGYDYWGQGTQVTVSS
  polyreactivity (PSR sort gate): high polyreactivity

## QVQLVESGGGLVQAGGSLRLSCAASVRTMGPYTMGWYRPAPGKERELVAVISSRTGLTYYADSVKGRFTISRDNAKITFYLHMNSLKPEDTAVYYCNAGGRYHAPSGDYWGQGTQVTVSS
  polyreactivity (PSR sort gate): low polyreactivity

## QVQLVESGGGLVQAGGSLRLSCAASVSIFDSYAMAWYRQAPGKERELVAAISKRGGSTYYADSVKGRFTISRDTAKNTVYLQMNCLKPEDTAVYFCAAVYSQARSKAVYSEYYYWGLGTQVTVSS
  polyreactivity (PSR sort gate): high polyreactivity

## QVQLVESGGGLVQAGGSLRLSCAASVSIFRWNTMGWYRQAPGKERELVASITFTGGRTYYADSVKGRFTISRDNAKNTVYLQMNSLKPEDTAVYYCNGLVVTYPKWKYDYWGQGTQVTVSS
  polyreactivity (PSR sort gate): high polyreactivity

## QVQLVESGGGLVQAGGSLRLSCAASVSIFSSYAMGWYRQAPGKERELVAAISRSGGRTYYADSVKGRFTISRDNAKNTVFLQMNSLKPEDTAVYYCNAYAQVSYGTYDYWGQGTQVTVSS
  polyreactivity (PSR sort gate): high polyreactivity

## QVQLVESGGGLVQAGGSLRLSCAASVSIFWLYAMGWYRQAPGKERELVAAITYSGGRTYADSVKGRFTISRDNAKNTVYVQMISLKPEDTEVIYCATVFRYRKSWGYDYWGQGTQVTVSS
  polyreactivity (PSR sort gate): low polyreactivity

## QVQLVESGGGLVQAGGSLRLSCAASVSIFYFYAMGWYIQAPGKERELVAAITDGGSTHYADSVKGRFTISRDNAKNTVYLQMNSLKPEDTAVYYCAAQWHYYLGSGYQYDYWGQGTQVTVSS
  polyreactivity (PSR sort gate): low polyreactivity

## QVQLVESGGGLVQAGGSLRLSCAASVSIYPDYAMGWYRQAPGKERELVAAISRSGGSTYYADSVKGRFTISRDNAKNTVYLQMNSLKREDTAVYDCNARPGSRYYGYRLYYYWGQGTQVTVSS
  polyreactivity (PSR sort gate): high polyreactivity

## QVQLVESGGGLVQAGGSLRLSCAASVSTFPFYSMGWYRQAPGKERELVAAITSGGSTYADSVKGRFTISRDNAKNTVYLQMNSLKPEDTAVYYCAASWPRWWRFGYWGQGTQVTVSS
  polyreactivity (PSR sort gate): low polyreactivity

## QVQLVESGGGLVQAGGSLRLSCAASVSTYIYYAMGWYRQAPGKERELVAAISQSGGSTYYADSVKGRFTISRDNAKNTVYLQMNSLKPEDTAVYYCAARLRHLGLGRYGFDYWGQGTQVTVSS
  polyreactivity (PSR sort gate): high polyreactivity

## QVQLVESGGGLVQAGGSLRLSCAASVYIFWINAMGWYRQAPGKDRELVAAIRYSTGRTYYADSVKGRFTISRDNAKNTVYLQMNSLKPEDTAVYYCNARSWYIRGSQEYYYWGQGTQVTVSS
  polyreactivity (PSR sort gate): high polyreactivity

## QVQLVESGGGLVQAGGSLRLSCAATGFIFFYYAMGWYRQAPGKERELFAVIDRSGGTTYYADSVKGRFTISRDNAKNTVYLQMNSLKPEDTAVYYCNADDFTYPSGWGFIYDYWGQGTQVTVSS
  polyreactivity (PSR sort gate): low polyreactivity

## QVQLVESGGGLVQAGGSLRLSCAATGFTFGFNDMGWYRQAPGKERELVAAISWSGGRTYYADSVKGRFTISRDNAKNTVYLQMNSLKPEDTAVYDCAAEGVGRADRNKEYDYWGQGTQVTVSS
  polyreactivity (PSR sort gate): high polyreactivity

## QVQLVESGGGLVQAGGSLRLSCAATGFTFNRYTMGWYRQAPGKERELVASISVRGSRTYSADSVKGRFTISRDNAKNTVYLQMNSLKPEDTAVYYCNAKTYVYYRLRSYYYWGQGTQVTVSS
  polyreactivity (PSR sort gate): high polyreactivity

## QVQLVESGGGLVQAGGSLRLSCAATGGIFNVYVMGWYRHAPGKESEFVAAITWRGGSTYYADSVKGRFTISRDNAKNTVYLQMNSLKPEDTAVYYCNADAPFQSSSDGYQVEYWGQGTQVTVSS
  polyreactivity (PSR sort gate): low polyreactivity

## QVQLVESGGGLVQAGGSLRLSCAATGGTFEFYTMGWYRQAPGKERELVAVINASGDSTYYADSVKGRFTISRDNAKNTVYLQMNSLKPEDTAVYYCAADNQGYTTKWRREYYYWGQGTQVTVSS
  polyreactivity (PSR sort gate): low polyreactivity

## QVQLVESGGGLVQAGGSLRLSCAATGIIFGDNAMGWYRQAPGKERELVAAFTIGGTSTYNADSVKGRFTISRDNAKNTVYLQMNSQKPEDTAVYYCAKTILYDCDYWGQGTQVTVSS
  polyreactivity (PSR sort gate): low polyreactivity

## QVQLVESGGGLVQAGGSLRLSCAATGLNFAYNAMGWYRQAPGKERELVAAITGGGDGTYYADSVKGRFTISRDNAKNTVYLQMNSLKPEDTAVYYCADDYKYVGSEYGYWGQGTQVTVSS
  polyreactivity (PSR sort gate): low polyreactivity

## QVQLVESGGGLVQAGGSLRLSCAATGLTFPQYAMGWYRQAPGKEREIVAAIRSSDDRTYYADSVKGRFTISRDNAKNTVYLQLNSLKPEDTAVYYCAARVGKIGYKPRMDYWGQGTQVSVSS
  polyreactivity (PSR sort gate): high polyreactivity

## QVQLVESGGGLVQAGGSLRLSCAATGNIFADYAKGWYRQAPGKERELVAAITWSGDDTYYADSVKGRFTISRDNAKNTVYLQMNSLKPEDTAVYYCAAGYWRTSVDFDYWGQCTQVTVSS
  polyreactivity (PSR sort gate): low polyreactivity

## QVQLVESGGGLVQAGGSLRLSCAATGNIFRYNAMGWYRQAPGKERELFAAISSVGTTNYADSVKGRFTISRDNEKNTVYLQMNSLKPEDTAVYYVAAVAYQGGYLNDNWGQGTQVTLSS
  polyreactivity (PSR sort gate): low polyreactivity

## QVQLVESGGGLVQAGGSLRLSCAATGRIFGSNAMGWYRQAPGKEREVVAAITRGGSTNYADSVKGRFTISRDNAKNTVYLQMNSLKPEDTAVYYCAVRWYRKYNFWGQGTQVTVSS
  polyreactivity (PSR sort gate): high polyreactivity

## QVQLVESGGGLVQAGGSLRLSCAATGRIFQRNAMGWSRQEPGKEREFVAAISSRGGTTYYADSVKGRFTISRDNAKNTVYLQMNSLKQEDTAVYYCAAGYVHLYYFHEYYWGQGTQVTVSS
  polyreactivity (PSR sort gate): high polyreactivity

## QVQLVESGGGLVQAGGSLRLSCAATGRIFYGYAMGWYRQAPVKERELVAAITRGVSTYYADSVKGRFTISRDNAKNTVYLQMNSLKPEDTAVYYCAIERRVRMDSWGQGTQVTVSS
  polyreactivity (PSR sort gate): low polyreactivity

## QVQLVESGGGLVQAGGSLRLSCAATGRIYVTNAMGWYRQAPGKERELVAAITESGGSTYYADTVKGRFTISRDNAKNTVYLQMNSLKPEDTAVYYCAADYLNGEEDYWGQGTQVTVSS
  polyreactivity (PSR sort gate): low polyreactivity
